The source of these data is PMC6311707.

In the experiment the target is NtermRGS2-GFP-CIBN (R2helix-CIBN component of opto-RGS2, GFP-tagged). Briefly: light-induced membrane translocation.

Substance “CRY2-mCherry-(GGGGS)3-RGS2box (CRY2-R2box component of opto-RGS2)” yielded a τoff (time constant of dark reversion from the membrane) of 396 s and a τon (time constant of light-induced membrane translocation) of 19.7 s.
